According to publication PMC7021470 (mSphere, 2020):
Like-named read-outs stand apart in the source and are kept apart here.

How the values were obtained:
[1] = molecular target: T1, E. faecalis metalloprotease GelE (bacterial supernatants) (Enterococcus faecalis, UniProt Q833V7); conditions: 500 pM recombinant GLP-1; 4 h at room temperature; ELISA; vs GM17 medium control; mean ± SD, n = 4
From the text: Two secreted proteases from E. faecalis are well known, the serine protease SprE and the metalloprotease GelE, both of which are regulated by the two-component, quorum-sensing fsr (faecalis system regulator) operon ([9]) (Fig. 2A). We obtained strains of E. faecalis containing null mutations in sprE (TX5243), gelE (TX5264), and fsrB (TX5266), as well as a gelE sprE double mutant (TX5128), all generated in the commonly used wild-type OG1RF E. faecalis strain ([10]).
Supernatants from E. faecalis protease mutants and controls (OG1RF, TX5266 [fsrB mutant], TX5264 [gelE mutant], TX5243 [sprE mutant], and TX5128 [gelE sprE mutant]) were collected from an overnight culture grown in GM17 aerobically at 37°C by centrifugation, as described above.

[2] = molecular target: E. faecalis metalloprotease GelE (apical supernatants) (Enterococcus faecalis, UniProt Q833V7); conditions: T84 transwell; approximately 500 pM GLP-1 in DMEM-F-12 basolateral; 16 h, 37°C, 5% CO2; ELISA; compared to DMEM-F-12 control; mean ± SD, four independent experiments
Experimental: Growth cultures and assays of T84 cells were performed by methods described previously, with slight modifications ([26]). T84 human colonic epithelial cells (ATCC CCL-248) were propagated in tissue culture-treated T75 flasks (Cellstar), as indicated by the ATCC. When between 90 and 100% confluence, T84 cells were treated with 0.25% trypsin and plated onto 24-well, 3.0-μm polycarbonate membrane transwell filters (catalog no. 3415; Costar) at a density of 8 × 10^4 cells/well.
To prepare bacteria, on the day of the assay E. faecalis strains were subcultured 1% (vol/vol) from an overnight culture into GM17 and grown for 5 h, as described above. Whole-culture (cells plus supernatant) samples were diluted in DMEM–F-12 (Gibco) to a concentration of 1 × 10^7 CFU/ml, and supernatant samples were diluted 50% in DMEM–F-12. All samples were neutralized to a pH of 6.8 to 7 using 3 M NaOH.
A final TEER measurement was taken for each monolayer.

[3] = molecular target: T1, E. faecalis metalloprotease GelE (bacterial supernatants); type: in vitro ADME; set-up: The secreted metalloprotease GelE serves E. faecalis by degrading misfolded surface proteins; endogenous in cells; host or cells: Enterococcus faecalis strains OG1RF, 30054A, 30002 (and TX5243 sprE mutant); culture supernatants; conditions: E. faecalis 30054A and 30002 supernatants; 200 pM GLP-1; 30 min at 100°C after incubation; ELISA; n = 2
Experimental: If GelE was targeting the ELISA and not GLP-1, one would expect to see high levels of GLP-1 in a sample heat treated after incubation with GLP-1, ensuring no further degradation by GelE during the ELISA.
Supplementary file : FIG S4 GLP-1-inhibitory activity with heat treatment pre- and postincubation. […] Data were obtained from two independent experiments (n = 2) and are expressed as the mean ± SD. Download FIG S4, PDF file, 0.02 MB.

[4] = test system: NCI-H716 cells; test: GLP-1 secretion screen with bacterial supernatants on NCI-H716 cells (ELISA); type: cell-based, human; conditions: 2 h incubation at 37°C, total GLP-1 by ELISA, medium control = 100%, PMA at 2 μM, mean ± SD, n = 3
Experimental: NCI-H716 (American Type Culture Collection [ATCC] CCL-251) cells were grown in RPMI (ATCC) medium supplemented with 10% (vol/vol) heat-inactivated newborn calf serum (NBCS; Gibco). Cultures were maintained at a concentration of 2 × 10^5 to 8 × 10^5 cells/ml and used at passages 15 to 40 for cell studies. For cell studies, 96-well plates were coated with 100 μl of 10 mg/ml Matrigel (BD Biosciences) for 2 h at room temperature. Following coating, NCI-H716 cells were seeded at a concentration of 1 × 10^5 cells/well in Dulbecco’s modified Eagle’s medium (DMEM) supplemented with 10% (vol/vol) NBCS, as determined by trypan blue staining using a hemocytometer. Two days later, lyophilized bacterial supernatants were resuspended in Krebs buffer (Sigma) containing 0.2% (wt/vol) bovine serum albumin (BSA) and 0.03% (wt/vol) bovine bile and incubated on the NCI-H716 cells at 37°C with 5% CO2. […] Cell viability was monitored using the PrestoBlue cell viability reagent (Thermo Fisher Scientific), following the manufacturer’s instructions.

[5] = test system: E. faecalis 30054A; test: Sensitivity of GLP-1-inhibitory activity to TPEN; type: cell-based, Enterococcus faecalis; conditions: E. faecalis 30054A grown overnight with increasing amounts of TPEN; supernatants incubated with 500 pM GLP-1, 4 h at room temperature; ELISA; n = 3
From the text: Supplementary file : FIG S1 Sensitivity of GLP-1-inhibitory activity to TPEN. […] Data were obtained from three (n = 3) independent experiments (replicates 1 to 3) with mean ± SD shown for each replicate (technical variation). Linear regression with R^2 goodness-of-fit value and P value are reported. Download FIG S1, EPS file, 0.1 MB.

[6] = molecular target: T2, E. faecalis metalloprotease GelE (bacterial supernatants) (Enterococcus faecalis, UniProt Q833V7); conditions: 4 h at room temperature; for quantity (%) of substrate remaining after incubation with supernatant, dilution 0.0001x: E. faecalis 30054A supernatant diluted 0.0001x in bacterial culture medium; for quantity (%) of substrate remaining after incubation with supernatant, dilution 0.0001x / quantity (%) of substrate remaining after incubation with supernatant, dilution 0.001x / quantity (%) of substrate remaining after incubation with supernatant, dilution 1x / quantity (%) of substrate remaining after incubation with supernatant, dilution 0.01x / quantity (%) of substrate remaining after incubation with supernatant, dilution 0.1x: recombinant substrate, Luminex (Milliplex) read-out, mean ± SD; for quantity (%) of substrate remaining after incubation with supernatant, dilution 0.0001x / quantity (%) of substrate remaining after incubation with supernatant, dilution 0.001x / degradation of substrate by GelE (in words) / quantity (%) of substrate remaining after incubation with supernatant, dilution 0.01x / quantity (%) of substrate remaining after incubation with supernatant, dilution 0.1x: n = 3; for quantity (%) of substrate remaining after incubation with supernatant, dilution 0.001x: E. faecalis 30054A supernatant diluted 0.001x in bacterial culture medium; for quantity (%) of substrate remaining after incubation with supernatant, dilution 1x: E. faecalis 30054A supernatant, 1x (undiluted), n = 3 independent experiments; for degradation of substrate by GelE (in words): undiluted supernatants of E. faecalis 30054A, 30002, OG1RF, ΔgelE, ΔsprE, S613, Luminex, Fig. 4; for quantity (%) of substrate remaining after incubation with supernatant, dilution 0.01x: E. faecalis 30054A supernatant diluted 0.01x in bacterial culture medium; for quantity (%) of substrate remaining after incubation with supernatant, dilution 0.1x: E. faecalis 30054A supernatant diluted 0.1x in bacterial culture medium
T2 sequence (Q833V7 whole entry, looked up): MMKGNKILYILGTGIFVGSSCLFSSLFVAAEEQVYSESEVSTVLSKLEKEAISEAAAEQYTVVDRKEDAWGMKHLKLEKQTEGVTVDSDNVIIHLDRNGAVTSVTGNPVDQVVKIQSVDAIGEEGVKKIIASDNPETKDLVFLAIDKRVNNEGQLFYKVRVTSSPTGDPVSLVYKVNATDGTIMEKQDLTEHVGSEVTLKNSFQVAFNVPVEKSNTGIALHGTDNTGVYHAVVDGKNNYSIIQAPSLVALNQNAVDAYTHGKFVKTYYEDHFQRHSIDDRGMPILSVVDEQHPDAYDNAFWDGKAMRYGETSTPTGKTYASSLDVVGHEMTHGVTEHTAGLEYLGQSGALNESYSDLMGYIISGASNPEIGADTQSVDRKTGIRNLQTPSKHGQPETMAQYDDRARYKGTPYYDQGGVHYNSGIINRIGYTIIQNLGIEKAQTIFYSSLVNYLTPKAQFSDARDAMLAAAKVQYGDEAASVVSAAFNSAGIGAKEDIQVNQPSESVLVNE
Experimental: To gain a better understanding of the substrate preference of GelE, we also tested the ability of diluted supernatants of E. faecalis 30054A, from 1 to 0.0001×, to degrade the same panel of metabolic substrates (Table 1).
Bacterial supernatants were collected from an overnight culture by centrifugation as described above, diluted in bacterial culture medium as indicated, and incubated with recombinant protein (GenScript; Sigma, Tocris) of each analyte for 4 h at room temperature, followed by storage at –80°C until ready for analyte quantification. The Milliplex multiplex assay was run according to the protocol provided by the manufacturer.

Compound	quantity (%) of substrate remaining after incubation with supernatant, dilution 0.0001x [6] [%]	quantity (%) of substrate remaining after incubation with supernatant, dilution 0.001x [6] [%]	quantity (%) of substrate remaining after incubation with supernatant, dilution 1x [6] [%]	degradation of substrate by GelE (in words) [6]	quantity (%) of substrate remaining after incubation with supernatant, dilution 0.01x [6] [%]	quantity (%) of substrate remaining after incubation with supernatant, dilution 0.1x [6] [%]	other results
CC[C@H](C)[C@H](NC(=O)[C@H](Cc1ccccc1)NC(=O)[C@H](CCC(=O)O)NC(=O)[C@H](CCCCN)NC(=O)[C@H](C)NC(=O)[C@H](C)NC(=O)[C@H](CCC(N)=O)NC(=O)CNC(=O)[C@H](CCC(=O)O)NC(=O)[C@H](CC(C)C)NC(=O)[C@H](Cc1ccc(O)cc1)NC(=O)[C@H](CO)NC(=O)[C@H](CO)NC(=O)[C@@H](NC(=O)[C@H](CC(=O)O)NC(=O)[C@H](CO)NC(=O)[C@@H](NC(=O)[C@H](Cc1ccccc1)NC(=O)[C@@H](NC(=O)CNC(=O)[C@H](CCC(=O)O)NC(=O)[C@H](C)NC(=O)[C@@H](N)Cc1c[nH]cn1)[C@@H](C)O)[C@@H](C)O)C(C)C)C(=O)N[C@@H](C)C(=O)N[C@@H](Cc1c[nH]c2ccccc12)C(=O)N[C@@H](CC(C)C)C(=O)N[C@H](C(=O)N[C@@H](CCCCN)C(=O)NCC(=O)N[C@@H](CCCNC(=N)N)C(N)=O)C(C)C [GLP-1, glucagon-like peptide-1]	–	–	–	–	–	–	GLP-1 level after incubation with OG1RF (wild-type) supernatant [1]: −0.06% ± 0.76%; GLP-1 level after incubation with ΔsprE mutant (TX5243) supernatant [1]: −0.14% ± 0.74%; GLP-1 in the basolateral compartment, apical 30054A supernatant [2]: 3.1% ± 2.68%; GLP-1 in the basolateral compartment, apical OG1RF supernatant [2]: 1.6% ± 0.46%; GLP-1 levels, supernatants heat treated after incubation with GLP-1 [3]: low GLP-1 levels
CCCCCCCCCCCCCC(=O)O[C@@H]1[C@@H](C)[C@@]2(O)[C@@H](C=C(CO)C[C@]3(O)C(=O)C(C)=C[C@@H]23)[C@@H]2C(C)(C)[C@]12OC(C)=O [PMA, 4-Phorbol 12 myristate 13-acetate]	–	–	–	–	–	–	GLP-1 compared to the medium controls [4]: 200%
c1ccc(CN(CCN(Cc2ccccn2)Cc2ccccn2)Cc2ccccn2)nc1 [TPEN, N,N,N′,N′-tetrakis(2-pyridylmethyl)ethane-1,2-diamine]	–	–	–	–	–	–	effect on GLP-1 degradation by supernatant [5]: reduction in GLP-1 degradation
insulin	99.23 ± 1.33	99.97 ± 0.05	57.29 ± 7.69	less striking but still statistically significant	–	–	–
interleukin 6 [IL-6]	95.74 ± 6.94	95.75 ± 7.36	80.28 ± 24.77	did not observe consistent degradation	99.91 ± 0.15	99.78 ± 0.37	–
leptin	97.77 ± 3.87	99.78 ± 0.39	2.15 ± 0.96	–	72.29 ± 1.72	7.95 ± 4.72	quantity (%) of substrate remaining after incubation with supernatant, dilution 0.1x ([6]; listed as leptin): 7.95% ± 4.72%
monocyte chemoattractant protein-1 [MCP-1]	98.33 ± 2.89	99.99 ± 0.01	–	less striking but still statistically significant	99.92 ± 0.14	74.03 ± 44.98	–
tumor necrosis factor alpha [TNFα]	98.12 ± 1.67	99.28 ± 1.25	–	less striking but still statistically significant	99.72 ± 0.48	87.87 ± 19.41	–
